The values below are quoted from earlier work in paper PMC8199105.

The target of this series is Albumin (UniProt P02768). Briefly: surface plasmon resonance.

In the case of Cubilin (from UniProt O70244), the Kd – broadly, a measure of binding affinity in units of concentration – was 630 nM.
